15 molecules from patent US20190127480A1 (Regeneron, published 2019) can be followed below.

What is called Kd is the concentration at which binding is half-saturated. Read a high Kd as a looser complex. As a reminder, the koff is the rate constant with which the complex falls apart. For orientation: kon means a measure of how fast the partners come together. A high value points to faster complex formation.

Sequences and labels used below:
B1: H1H7269P (monovalent 1-arm) (antibody, human IgG1, V domains shown)
VH: QVQLVESGGGLVQPGRSLRLSCAASGFKFDDYTMHWVRQGPGKGLEWVSDISWSGGSIDYTDSVKGRFSISRDNAKNSLYLQMNSLRVEDTALYYCVKDKSGYGKYSYGLDVWGQGTTVTVSS
VL: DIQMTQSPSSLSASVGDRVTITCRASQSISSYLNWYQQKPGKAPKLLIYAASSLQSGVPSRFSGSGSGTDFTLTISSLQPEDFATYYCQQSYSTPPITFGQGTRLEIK
notes: Monovalent 1-arm: second Fab removed, only the Fc portion (CH2-CH3) expressed; human IgG1 Fc; tied by numerical identifier; also called H1H7269B
B2: H1H7226P (monovalent 1-arm) (antibody, human IgG1, V domains shown)
VH: EVQLVQSGGGLVQPGRSLRLSCAASGFTFSDYTMHWVRQGPGKGLEWVSDISWNSGSKGYTDSVKGRFTISRDNAKKSLYLQMNSLRAEDTALYYCVKDGSGYGKYHFYAMDVWGQGTLVTVSS
VL: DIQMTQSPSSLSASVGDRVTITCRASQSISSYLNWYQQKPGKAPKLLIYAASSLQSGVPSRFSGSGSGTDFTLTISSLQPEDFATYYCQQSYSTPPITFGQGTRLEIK
notes: Monovalent 1-arm: second Fab removed, only the Fc portion (CH2-CH3) expressed; human IgG1 Fc; tied by numerical identifier; also called H1H7226B
B3: H1H7242P (monovalent 1-arm) (antibody, human IgG1, V domains shown)
VH: EVQLVESGGGLVQPGRSLRLSCAASGFTFDDYTMHWVRQGPGKGLEWVSDIGWNSNSIGYADSVKGRFTISRDNAKNSLYLQMNSLRPEDTALYFCVKDKSGYGKFFIGLDVWGQGTMVTVSS
VL: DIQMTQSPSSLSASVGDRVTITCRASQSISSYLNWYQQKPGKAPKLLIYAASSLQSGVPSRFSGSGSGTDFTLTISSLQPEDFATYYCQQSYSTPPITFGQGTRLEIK
notes: Monovalent 1-arm: second Fab removed, only the Fc portion (CH2-CH3) expressed; human IgG1 Fc; tied by numerical identifier; also called H1H7242B
B4: H1H7251P (monovalent 1-arm) (antibody, human IgG1, V domains shown)
VH: EVQLVESGGGLVQPGRSLRLSCAASGFTFADYTMHWVRQGPGTGLEWVSDIGWSGGSLGYADSVKGRFTISRDNAKNSLYLEMNNLRPEDTALYYCVKDKSGYGKFQYGLDVWGQGTTVTVSS
VL: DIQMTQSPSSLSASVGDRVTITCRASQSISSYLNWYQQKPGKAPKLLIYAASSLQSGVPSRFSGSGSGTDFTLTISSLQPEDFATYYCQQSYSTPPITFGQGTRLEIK
notes: Monovalent 1-arm: second Fab removed, only the Fc portion (CH2-CH3) expressed; human IgG1 Fc; tied by numerical identifier; also called H1H7251B
B5: H1H7250P (monovalent 1-arm) (antibody, human IgG1, V domains shown)
VH: B3 VH with E1Q, S57T, I58K
VL: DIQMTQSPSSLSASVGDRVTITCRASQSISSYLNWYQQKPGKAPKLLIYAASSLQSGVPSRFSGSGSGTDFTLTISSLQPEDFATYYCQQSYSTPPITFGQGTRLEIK
notes: Monovalent 1-arm: second Fab removed, only the Fc portion (CH2-CH3) expressed; human IgG1 Fc; tied by numerical identifier; also called H1H7250B
B6: H1H7241P (monovalent 1-arm) (antibody, human IgG1, V domains shown)
VH: B3 VH with D30A, S57T, T69A, F95Y, F107Q, I108Y, M118T
VL: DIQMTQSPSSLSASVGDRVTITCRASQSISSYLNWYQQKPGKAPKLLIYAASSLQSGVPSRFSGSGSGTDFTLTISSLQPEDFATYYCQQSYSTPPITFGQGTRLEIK
notes: Monovalent 1-arm: second Fab removed, only the Fc portion (CH2-CH3) expressed; human IgG1 Fc; tied by numerical identifier; also called H1H7241B
B7: H1H7254P (monovalent 1-arm) (antibody, human IgG1, V domains shown)
VH: B3 VH with L11V, T28K, D31G, S57T
VL: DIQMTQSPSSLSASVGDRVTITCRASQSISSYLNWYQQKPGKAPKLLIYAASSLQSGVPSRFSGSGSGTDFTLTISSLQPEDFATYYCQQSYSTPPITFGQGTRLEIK
notes: Monovalent 1-arm: second Fab removed, only the Fc portion (CH2-CH3) expressed; human IgG1 Fc; tied by numerical identifier; also called H1H7254B
B8: H1H7258P (monovalent 1-arm) (antibody, human IgG1, V domains shown)
VH: B3 VH with E1Q, S57T, K76R, F95Y, F107Q, I108Y, M118T
VL: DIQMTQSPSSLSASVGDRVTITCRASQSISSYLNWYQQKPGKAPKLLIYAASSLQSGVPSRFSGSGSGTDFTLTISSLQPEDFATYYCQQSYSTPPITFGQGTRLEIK
notes: Monovalent 1-arm: second Fab removed, only the Fc portion (CH2-CH3) expressed; human IgG1 Fc; tied by numerical identifier; also called H1H7258B
B9: H1H7233P (monovalent 1-arm) (antibody, human IgG1, V domains shown)
VH: EVQLVESGGGLVQPGGSLRLSCEASGFTFADYTLHWVRQAPGKGLEWVSDISWNSGTRGYADSVRGRFTISRDNAKKSLYLQMNSLRSEDTALYYCVKDGSGYGRYNFYAMDVWGQGTTVTVSS
VL: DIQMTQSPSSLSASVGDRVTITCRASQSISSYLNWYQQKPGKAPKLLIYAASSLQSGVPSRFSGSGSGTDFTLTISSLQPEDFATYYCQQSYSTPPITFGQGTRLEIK
notes: Monovalent 1-arm: second Fab removed, only the Fc portion (CH2-CH3) expressed; human IgG1 Fc; tied by numerical identifier; also called H1H7233B
B10: H1H11797P2 (antibody, human IgG1, V domains shown)
VH: QVQLVESGGGVVQPGRSLRLSCAASGFSFSGYGMHWVRQAPGKGLEWVAVTWYDGSNKYYADSVKGRFTISRDNSKNTLYLQMNSLRAEDTAVYYCARDGNWGGPYWYFDLWGRGTLVTVSS
VL: DIQMTQSPSSLSASVGDSVTITCRASQSINNYLNWYQQKPGKAPKLLIYTASSLLSGVPSRFSGSGSGTDFTLTISGLHPEDFATYFCQQSFSTPPITFGQGTRLDIK
notes: human IgG1
B11: H1H11792P2 (antibody, human IgG1, V domains shown)
VH: QVQLVESGGGVVQPGRSLRLSCAASGFTFSSYGMHWVRQPPGKGLEWVAIMSYDGSNKYYADSVKGRFTISRDNSKNTLYLQMNSLRVEDTAVYYCAKDQYYDFLTFDYTLDYWGQGTLVTVSS
VL: B10 VL
notes: human IgG1
B12: H1H11800P2 (antibody, human IgG1, V domains shown)
VH: QVQLVESGGGVVQPGRSLRLSCAASGFTFSSYGMHWVRQAPGKGLEWVAVISYAGNNKYYVDSVKGRFTISRDNSKNTLYLQMNSLRAEDTAVYYCAKDPYYDFLTGSDYFDYWGQGTLVTVSS
VL: B10 VL
notes: human IgG1
B13: H1H11810P2 (antibody, human IgG1, V domains shown)
VH: QVQLVESGGGVVQPGRSLRLSCAASGFTFSSYGMHWVRQAPGKGLEWVAVISYAGNNKYYADSVKGRFTVSRDNSKKTLYLQMNSLRSEDTAVYYCAKDSYYDFLTDPDVLDIWGQGTMVTVSS
VL: B10 VL
notes: human IgG1; also called PSMA-VH-11810 (its HCVR)
B14: H1H11837P2 (antibody, human IgG1, V domains shown)
VH: QVQLVESGGGVVQPGRSLRLSCAASGFTFSSYGMHWVRQAPGKGLEWVTFISYDGNNKYYSDSVKGRFAISRDNSKNTLYLQMNSLRAEDTSVYFCAKDQYYDFLTDFGVFDYWGQGTLVTVSS
VL: B10 VL
notes: human IgG1
B15: H1H3465P (antibody, human IgG1, V domains shown)
VH: QVQLVESGGGVVQPGRSLRLSCAASGFTFITYGMHWVRQAPGKGLEWVAIIYYDESNKYYADSVKGRFTISRDISKNTLYLQMNGLRAEDTAVYYCARAPRVAVEEDYSYYYGMDVWGQGTTVTVSS
VL: DIQMTQSPSSLSASVGDRVTITCRASQGIRNDLGWYQQKPGRAPKRLIYGASNLQSGVPSRFSGSGSGTEFTLTISSLQPEDFATYYCLQHNSHPYTFGQGTKLEIK
notes: human IgG1; also called PSMA-VH-3465 (its HCVR)

Numbering of substitutions follows the chain as printed. Where only a bound is given, the exact number is not on record here.

T1 sequence (P07766 23-126 limits assumed, stated change not applied, chain 1 of 2): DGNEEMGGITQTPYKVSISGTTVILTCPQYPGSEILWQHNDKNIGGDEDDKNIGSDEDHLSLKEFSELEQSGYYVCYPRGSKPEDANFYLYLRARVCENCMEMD
T1 sequence (P04234 22-105 limits assumed, stated change not applied, chain 2 of 2): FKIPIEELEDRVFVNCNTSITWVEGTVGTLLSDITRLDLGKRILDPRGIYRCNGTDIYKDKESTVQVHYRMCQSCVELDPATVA

The first assay addresses T1, Soluble heterodimeric CD3 protein (hCD3-epsilon/hCD3-delta) with either a human Fc tag (hFcΔAdp/hFc) or a … (human, UniProt P07766 23-126; P04234 22-105).
T1 construct: also called hCD3ε/δ; not shown: Fc tag: human (hFcΔAdp/hFc)
The experiment in a line: SPR Biacore 25C antibody-capture, 1-arm. How it is done:
Soluble heterodimeric CD3 protein (hCD3-epsilon/hCD3-delta; SEQ ID NOs:1652/1653) with either a human Fc tag (hFcΔAdp/hFc; SEQ ID NOs:1683/1684) or a mouse Fc tag (mFcΔAdp/mFc; SEQ ID NOs:1685/1686) was injected over the antibody captured surface and the binding response was recorded. Heterodimeric CD3 protein was purified using the method described in Davis et al. (US2010/0331527).
(§1) Kinetic association (kₐ) and dissociation (kd) rate constants were determined by processing and fitting the data to a 1:1 binding model using Scrubber 2.0 curve fitting software. Binding dissociation equilibrium constants (KD) and dissociative half-lives (t₁₁₂) were calculated from the kinetic rate constants as: KD (M)=kd/kₐ; and t_{1/2} (min)=(ln 2/(60*kd). NT=not tested; NB=no binding observed.
For orientation: SPR reads the build-up and loss of mass on a sensor chip optically.
As for B1, the Kd came out at 243 nM, the “T½” value is 2 min, the koff came out at 0.00624 s⁻¹ and the kon worked out at 25700 M⁻¹ s⁻¹.

As for B2, the dissociation constant Kd worked out at 27.2 nM, the “T½” value amounted to 33 min, the koff is 0.000355 s⁻¹ and the kon amounted to 13000 M⁻¹ s⁻¹.

As to B3, the Kd is 30.9 nM, the “T½” value was 17 min, the koff came to 0.000664 s⁻¹ and the kon turned out to be 21500 M⁻¹ s⁻¹.

For B4, binding was put at a Kd of 41.7 nM, the “T½” value was found to be 11 min, the koff amounted to 0.00107 s⁻¹ and the kon stood at 25600 M⁻¹ s⁻¹.

Take B5: binding was characterised by a dissociation constant (Kd) of 10.5 nM, the “T½” value is 47 min, the koff amounted to 0.000247 s⁻¹ and the kon was determined as 23400 M⁻¹ s⁻¹.

As for B6, the affinity, expressed as Kd, was 22 nM; the “T½” value was determined as 39 min; the koff turned out to be 0.000295 s⁻¹; the kon worked out at 13400 M⁻¹ s⁻¹.

As to B7, binding was put at a Kd of 14.9 nM, the “T½” value was determined as 30 min, the koff is 0.000388 s⁻¹ and the kon is 26000 M⁻¹ s⁻¹.

As to B8, the Kd came out at 24 nM, the “T½” value came out at 38 min, the dissociation rate constant (koff) worked out at 0.000302 s⁻¹ and the association rate constant (kon) turned out to be 12600 M⁻¹ s⁻¹.

Turning to B9, binding was characterised by a dissociation constant (Kd) of 24.2 nM, the “T½” value stood at 43 min, the koff was found to be 0.000269 s⁻¹ and the kon worked out at 11100 M⁻¹ s⁻¹.

For the next assay, the target named is T2, human PSMA expressed with an N-terminal hexahistidine tag (6h.hPSMA, R&D) (human, UniProt Q04609 44-750).
T2 construct: Bought soluble protein; also called soluble human PSMA; human PSMA protein
T2 sequence (Q04609 other isoform, or with tags, fused parts or gaps limits assumed): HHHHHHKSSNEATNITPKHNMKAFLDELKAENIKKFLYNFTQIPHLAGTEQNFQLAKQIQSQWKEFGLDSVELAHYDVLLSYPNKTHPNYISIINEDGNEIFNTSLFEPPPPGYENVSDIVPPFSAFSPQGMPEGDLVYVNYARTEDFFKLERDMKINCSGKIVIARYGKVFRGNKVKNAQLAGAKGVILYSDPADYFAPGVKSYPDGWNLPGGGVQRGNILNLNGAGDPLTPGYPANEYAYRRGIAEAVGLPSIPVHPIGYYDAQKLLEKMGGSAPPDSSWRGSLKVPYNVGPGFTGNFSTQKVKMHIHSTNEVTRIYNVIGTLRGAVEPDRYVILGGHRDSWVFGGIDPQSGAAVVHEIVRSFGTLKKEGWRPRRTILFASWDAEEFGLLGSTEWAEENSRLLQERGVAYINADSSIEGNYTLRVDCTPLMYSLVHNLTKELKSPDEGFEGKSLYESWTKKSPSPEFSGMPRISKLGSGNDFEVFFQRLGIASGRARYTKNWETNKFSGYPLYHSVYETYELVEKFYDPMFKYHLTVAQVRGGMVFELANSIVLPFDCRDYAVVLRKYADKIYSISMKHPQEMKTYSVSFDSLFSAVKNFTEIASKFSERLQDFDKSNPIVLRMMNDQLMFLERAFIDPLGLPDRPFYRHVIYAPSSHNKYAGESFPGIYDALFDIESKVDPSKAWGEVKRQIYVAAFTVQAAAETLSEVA
The experiment in a line: SPR Biacore T-200, 37 C, antibody-capture (anti-human Fc), 6h.hPSMA as analyte. How it is done: In this example, anti-PSMA antibodies were assessed for their ability to bind to human PSMA. […] Measurements were conducted on a Biacore™ T-200 instrument (GE Healthcare).
Briefly, a CM5 Biacore™ sensor surface was derivatized via amine coupling with a monoclonal mouse anti-human Fc antibody (GE, # BR-1008-39) or monoclonal goat anti-mouse Fc antibody (GE, # BR-1008-38) to capture purified anti-PSMA antibodies. Binding studies were performed in HBSP++ buffer composed of 0.01M HEPES, 0.15M NaCl, 2 mM Ca²⁺, 2 mM Mg²⁺, 0.05% v/v Surfactant P20, pH7.4. Varying concentrations of human PSMA expressed with an N-terminal hexahistidine tag (6h.hPSMA, R&D) prepared in HBSP++ running buffer (ranging from 50 to 0.78 nM, 4-fold dilutions) were injected over the anti-PSMA antibody captured surface at a flow rate of 30 μL/minute. Antibody-reagent association was monitored for 2 minutes while dissociation in HBSP++ running buffer was monitored for 8 minutes.
Kinetic association (kₐ) and dissociation (kd) rate constants were determined by fitting the real-time sensorgrams to a 1:1 binding model using Scrubber 2.0c curve fitting software. Binding dissociation equilibrium constants (KD) and dissociative half-lives (t½) were calculated from the kinetic rate constants as: KD (M)=kd/kₐ; and t_{1/2} (min)=(ln 2/(60*kd).
With B10, binding was put at a Kd of 3.74 nM, the koff was determined as 0.00063 s⁻¹, the kon is 168000 M⁻¹ s⁻¹ and the “t1/2” value was 18.3 min.

With B11, the Kd was 0.205 nM, the koff was 9.7e-05 s⁻¹, the kon stood at 473000 M⁻¹ s⁻¹ and the “t1/2” value turned out to be 119 min.

As to B12, the affinity, expressed as Kd, was 0.163 nM; the koff is 4.1e-05 s⁻¹; the kon stood at 251000 M⁻¹ s⁻¹; the “t1/2” value was 282 min.

Consider B13, for which the Kd is not above 0.0199 nM, the koff is not above 1e-05 s⁻¹, the kon is 503000 M⁻¹ s⁻¹ and the “t1/2” value was not below 1160 min.

Take B14: the affinity, expressed as Kd, was 1.66 nM; the koff was 0.000734 s⁻¹; the kon stood at 441000 M⁻¹ s⁻¹; the “t1/2” value came out at 15.7 min.

Regarding B15, binding was characterised by a dissociation constant (Kd) of 0.227 nM, the koff worked out at 6.06e-05 s⁻¹, the kon came out at 267000 M⁻¹ s⁻¹ and the “t1/2” value is 191 min.

The next assay concerns the target T1, Soluble heterodimeric CD3 protein …. Briefly: SPR Biacore 25C antigen-capture, 1-arm. How it is done: In the antigen-capture format, heterodimeric CD3 protein was captured using a rabbit anti-mouse Fc or mouse anti-human Fc and the respective antibodies were injected over the captured antigen.
as §1
For the molecule B1, the Kd worked out at 24.9 nM, the “T½” value worked out at 2 min, the koff came out at 0.00689 s⁻¹ and the kon stood at 277000 M⁻¹ s⁻¹.

Regarding B2, the affinity, expressed as Kd, was 0.565 nM; the “T½” value worked out at 49 min; the koff amounted to 0.000236 s⁻¹; the kon worked out at 418000 M⁻¹ s⁻¹.

With B3, the Kd is 2.63 nM, the “T½” value was 11 min, the koff turned out to be 0.00101 s⁻¹ and the kon worked out at 383000 M⁻¹ s⁻¹.

B4: the Kd stood at 2.67 nM, the “T½” value was found to be 10 min, the koff stood at 0.00119 s⁻¹ and the kon was 447000 M⁻¹ s⁻¹.

Regarding B5, the Kd is 0.82 nM, the “T½” value turned out to be 61 min, the koff came to 0.000189 s⁻¹ and the kon came to 231000 M⁻¹ s⁻¹.

As for B6, the Kd came out at 1.26 nM, the “T½” value came out at 49 min, the koff worked out at 0.000236 s⁻¹ and the kon turned out to be 187000 M⁻¹ s⁻¹.

In the case of B7, the affinity, expressed as Kd, was 0.762 nM; the “T½” value was 35 min; the koff was 0.00033 s⁻¹; the kon was determined as 433000 M⁻¹ s⁻¹.

Regarding B8, the Kd amounted to 2.18 nM, the “T½” value was determined as 40 min, the koff was 0.00029 s⁻¹ and the kon came out at 133000 M⁻¹ s⁻¹.

Turning to B9, the affinity, expressed as Kd, was 1.27 nM; the “T½” value is 57 min; the off-rate constant (koff) was 0.000204 s⁻¹; the kon is 161000 M⁻¹ s⁻¹.
